This note sets out measurements from patent publication US20260001928A1 (CORTERIA PHARMACEUTICALS, priority 2022, published 2026).

*1 amine or outer side, *2 acyl side, *3 side chain or, on linkers, in order; H or OH if unused. Where no end group is shown, it is not given here. Side-chain parts run from the residue outwards. [ ]: non-standard residue; d: D form. The star is where a group is joined. C20 diacid = O=C(O)CCCCCCCCCCCCCCCCCCC(=O)*; γGlu = O=C(O)[C@H](CCC(=O)[*:2])N[*:1]; NMeI = CC[C@H](C)[C@H](NC)C(=O)O; Aib = CC(C)(N)C(=O)O

In assay [1] the target is Rat CRF2 a (corticotropin-releasing factor receptor 2), on the A7R5 rat aortic smooth muscle cell line (rat, UniProt P47866 20-411). Briefly: cell-based or functional assay.
Rat CRF2 a (corticotropin-releasing factor receptor 2), on the A7R5 rat aortic smooth muscle cell line, sequence (P47866 20-411): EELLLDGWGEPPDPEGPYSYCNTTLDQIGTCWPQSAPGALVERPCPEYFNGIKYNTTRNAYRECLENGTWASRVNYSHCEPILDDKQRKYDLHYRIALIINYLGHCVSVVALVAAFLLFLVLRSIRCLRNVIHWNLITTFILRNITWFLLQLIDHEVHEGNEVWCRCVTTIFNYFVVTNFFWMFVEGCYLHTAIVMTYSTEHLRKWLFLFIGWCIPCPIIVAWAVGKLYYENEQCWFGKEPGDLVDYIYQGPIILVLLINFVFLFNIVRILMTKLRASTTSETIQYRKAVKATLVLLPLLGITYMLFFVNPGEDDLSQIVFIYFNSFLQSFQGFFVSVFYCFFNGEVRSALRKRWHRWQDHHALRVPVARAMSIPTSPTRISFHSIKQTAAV
Assay [2] concerns the target T1, CRF1R (corticotropin-releasing factor receptor 1), on the CRF1R-overexpression CHO-K1 cell line clone 2 (UniProt P34998 24-415, limits assumed).
T1 sequence (looked up): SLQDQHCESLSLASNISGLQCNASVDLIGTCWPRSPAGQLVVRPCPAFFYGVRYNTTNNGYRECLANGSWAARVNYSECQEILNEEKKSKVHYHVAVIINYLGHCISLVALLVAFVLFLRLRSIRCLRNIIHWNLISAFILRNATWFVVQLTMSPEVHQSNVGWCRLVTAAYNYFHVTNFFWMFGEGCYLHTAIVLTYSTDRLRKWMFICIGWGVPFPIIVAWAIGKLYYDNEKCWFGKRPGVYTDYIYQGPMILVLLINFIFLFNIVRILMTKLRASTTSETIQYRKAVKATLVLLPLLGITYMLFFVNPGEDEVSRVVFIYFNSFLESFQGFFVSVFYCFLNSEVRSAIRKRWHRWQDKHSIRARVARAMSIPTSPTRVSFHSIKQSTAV
The assay is described as follows: cell-based or functional assay.

B1: peptide of SEQ ID NO: 243 (peptide)
peptide: Ac-IVLSLD[dV]PIKLK([γGlu-γGlu-C20 diacid])KILLEQEKQKKQREQAETN[Aib]QILAQV-NH2
SMILES: CC[C@H](C)[C@H](NC(C)=O)C(=O)N[C@H](C(=O)N[C@@H](CC(C)C)C(=O)N[C@@H](CO)C(=O)N[C@@H](CC(C)C)C(=O)N[C@@H](CC(=O)O)C(=O)N[C@@H](C(=O)N1CCC[C@H]1C(=O)N[C@H](C(=O)N[C@@H](CCCCN)C(=O)N[C@@H](CC(C)C)C(=O)N[C@@H](CCCCNC(=O)CC[C@H](NC(=O)CC[C@H](NC(=O)CCCCCCCCCCCCCCCCCCC(=O)O)C(=O)O)C(=O)O)C(=O)N[C@@H](CCCCN)C(=O)N[C@H](C(=O)N[C@@H](CC(C)C)C(=O)N[C@@H](CC(C)C)C(=O)N[C@@H](CCC(=O)O)C(=O)N[C@@H](CCC(N)=O)C(=O)N[C@@H](CCC(=O)O)C(=O)N[C@@H](CCCCN)C(=O)N[C@@H](CCC(N)=O)C(=O)N[C@@H](CCCCN)C(=O)N[C@@H](CCCCN)C(=O)N[C@@H](CCC(N)=O)C(=O)N[C@@H](CCCNC(=N)N)C(=O)N[C@@H](CCC(=O)O)C(=O)N[C@@H](CCC(N)=O)C(=O)N[C@@H](C)C(=O)N[C@@H](CCC(=O)O)C(=O)N[C@H](C(=O)N[C@@H](CC(N)=O)C(=O)NC(C)(C)C(=O)N[C@@H](CCC(N)=O)C(=O)N[C@H](C(=O)N[C@@H](CC(C)C)C(=O)N[C@@H](C)C(=O)N[C@@H](CCC(N)=O)C(=O)N[C@H](C(N)=O)C(C)C)[C@@H](C)CC)[C@@H](C)O)[C@@H](C)CC)[C@@H](C)CC)C(C)C)C(C)C
B1: the “EC50 [nM] 0% HSA (cAMP, A7R5 rat aortic smooth muscle cells)” value in assay [1] came to 0.09 nM. Besides, in assay [2], the “EC50 [nM] (cAMP, CRF1R-overexpression CHO-K1 cells)” value was greater than 250 nM and the “Emax (% I) (cAMP, 100% = Sauvagine at 100 nM)” value is 8 % I.

B2: peptide of SEQ ID NO: 242 (peptide)
peptide: [NMeI]VLSLD[dV]PIKLK([γGlu-γGlu-C20 diacid])KILLEQEKQKEQREQAETN[Aib]QILAQV-NH2
modifications: N-terminus assumed
SMILES: CC[C@H](C)[C@H](NC)C(=O)N[C@H](C(=O)N[C@@H](CC(C)C)C(=O)N[C@@H](CO)C(=O)N[C@@H](CC(C)C)C(=O)N[C@@H](CC(=O)O)C(=O)N[C@@H](C(=O)N1CCC[C@H]1C(=O)N[C@H](C(=O)N[C@@H](CCCCN)C(=O)N[C@@H](CC(C)C)C(=O)N[C@@H](CCCCNC(=O)CC[C@H](NC(=O)CC[C@H](NC(=O)CCCCCCCCCCCCCCCCCCC(=O)O)C(=O)O)C(=O)O)C(=O)N[C@@H](CCCCN)C(=O)N[C@H](C(=O)N[C@@H](CC(C)C)C(=O)N[C@@H](CC(C)C)C(=O)N[C@@H](CCC(=O)O)C(=O)N[C@@H](CCC(N)=O)C(=O)N[C@@H](CCC(=O)O)C(=O)N[C@@H](CCCCN)C(=O)N[C@@H](CCC(N)=O)C(=O)N[C@@H](CCCCN)C(=O)N[C@@H](CCC(=O)O)C(=O)N[C@@H](CCC(N)=O)C(=O)N[C@@H](CCCNC(=N)N)C(=O)N[C@@H](CCC(=O)O)C(=O)N[C@@H](CCC(N)=O)C(=O)N[C@@H](C)C(=O)N[C@@H](CCC(=O)O)C(=O)N[C@H](C(=O)N[C@@H](CC(N)=O)C(=O)NC(C)(C)C(=O)N[C@@H](CCC(N)=O)C(=O)N[C@H](C(=O)N[C@@H](CC(C)C)C(=O)N[C@@H](C)C(=O)N[C@@H](CCC(N)=O)C(=O)N[C@H](C(N)=O)C(C)C)[C@@H](C)CC)[C@@H](C)O)[C@@H](C)CC)[C@@H](C)CC)C(C)C)C(C)C
For B2, the “EC50 [nM] 0% HSA (cAMP, A7R5 rat aortic smooth muscle cells)” value in assay [1] came out at 0.4 nM. Moreover, in assay [2], the “EC50 [nM] (cAMP, CRF1R-overexpression CHO-K1 cells)” value is greater than 250 nM and the “Emax (% I) (cAMP, 100% = Sauvagine at 100 nM)” value amounted to 6 % I.
